Columns and labels:
HL-60 cells = assay: Caspase 3 activity assay in ARTS-transfected HL-60 cells; assay type: cell-based
Protocol: (§1) K562 and HL-60 cells were grown in RPMI 1640 medium. A549, COS-7 cells were grown in Dulbecco's modified Eagle medium (DMEM) with 4.5 grams/liter (g/L) D-glucose. All cells were grown at 37° C. in a 5% CO2 atmosphere. All media were supplemented with 10% fetal calf serum (FCS), penicillin (100 U/ml), streptomycin (100 micrograms (μg)/ml) and […] millimolar [mM]) (Biological Industries, Israel). pEF1-AU5 and pEF1-AU5-ARTS constructs were used for all ARTS transient transfection experiments. An AU5 tag was attached to the N' terminus of ARTS as described in ([…] et al, Nat Cell Biol 2: 915-921, 2000). The […] construct was generated by replacing three amino acids ([…]) at the GTP binding site, using site-directed mutagenesis (QuickChangeTM, Stratagene) with the primer: [NT] No: 1). COS-7, K562 and HL-60 cells were transiently transfected using electroporation (EasyjectTM plus-Equibio). A549 cells were transiently transfected using lipofectaminTM (Invitrogen) according to the manufacturer's protocol. The following apoptotic agents were used: TGF-beta (10 ng/ml) for 24 hours in medium containing 1% FCS; […] etoposide for 2 or 16 hours (Sigma); staurosporine (STS) ([…]) for 0-3 hours (Sigma); and arabinoside-c (ara-C, cytosar) (Pharmacia) at […] for 4 hours. In the case of transiently transfected cells, agents were added forty hours after transfections. […]

K562 cells = assay: Caspase 3 activity assay in ARTS-transfected K562 cells; assay type: cell-based
Protocol: as §1

A549 cells = assay: Caspase 3 activity assay in ARTS-transfected A549 cells; assay type: cell-based
Protocol: as §1

COS-7 cells [1] = assay: Active caspase 3 immunofluorescence staining in ARTS-transfected COS-7 cells; assay type: cell-based, African Green Monkey
Protocol: as §1

XIAP [2] = biological target: T1, XIAP (Homo sapiens, UniProt P98170); assay: In vitro binding assay, recombinant ARTS with GST-XIAP; conditions: GST-XIAP and purified recombinant ARTS protein, GST alone as negative control
T1 construct: made in house; host or cells: bacteria (pGEX-XIAP plasmid obtained from Dr. Colin S. Duckett)
Protocol: Recombinant ARTS protein was generated with the TNT-Quick Coupled Transcription/Translation System™ (Promega) and incubated overnight at 4° C. with either recombinant GST-XIAP bound to glutathione beads, or with GST alone bound to glutathione beads, followed by Western blot with anti-ARTS or anti-GST antibody (Gibco).

XIAP [3] = assay: Co-immunoprecipitation of ARTS-XIAP complexes in COS-7 cells; assay type: cell-based, African Green Monkey; conditions: un-transfected COS-7 cells, apoptosis induced with staurosporine, IP anti-ARTS
Protocol: (§2) Protein extracts were prepared with lysis buffer (150 mM NaCl, 50 mM Tris-HCl (pH 8), 1% NP-40, 0.5% deoxycholate acid) with protease inhibitors. Lysates containing equal amounts of total protein were pre-cleared overnight with 1 mg mouse IgG (Sigma) coupled with protein A/G-Sepharose mix (Amersham Biosciences) and the beads centrifuged. Supernatants were immuno-precipitated using 5 μl of anti-ARTS antibody for 4 h, anti-XIAP antibody, rabbit anti-myc antibody, or mouse IgG (negative control). Protein A/G Sepharose beads were added for 1 hour and washed four times with PBS. Antibodies against XIAP (as above), Myc (Santa Cruz), or anti-ARTS (NT) antibodies directed against the common N′ terminus of ARTS and H5 (ProSci Incorporated) were used for Western blot.

COS-7 cells [4] = assay: Apoptosis assays (TUNEL, anti-H2A.X) in COS-7 cells; assay type: cell-based, African Green Monkey; conditions: COS-7 cells stably transfected with an ARTS construct
Protocol: Apoptotic cells were detected using the anti-H2A.X antibody (Upstate; Paull, et al., 2000) or TUNEL. For TUNEL assays, COS-7 cells were transiently transfected with AU5-ARTS, AU5-ARTSΔC, AU5-ARTSmGTP and AU5-H5. Twenty-four hours after transfection, the cells were treated with staurosporine (STS) ([…]) for 1 or 3 hours, then fixed and permeabilized. Apoptosis levels were determined using the TUNEL. In situ™ cell death detection TMR kit (Roche) according to the manufacturer's protocol. All slides were coded and experiments were performed in a blind manner.
(§3) Stably transfected COS-7 pE-ARTS cells were generated using the pEF1-IRES vector (Hobbs S et al, Biochem Biophys Res Commun 252: 368-372, 1998). The construct contains an EF-1 promoter followed by a multi cloning site, an EMC (Encephalomyocarditis virus) internal ribosome entry sites (IRES), and a puromycin resistance gene. AU5-tagged ARTS was inserted into the XhoI site downstream of the EF-1 promoter. The construct was stably transfected into COS-7 cells. The cells were maintained in medium containing 4 μg/ml puromycin.

COS-7 cells [5] = assay: Immunofluorescence of ARTS and XIAP localization in COS-7 cells; assay type: cell-based, African Green Monkey; conditions: apoptotic cells over-expressing ARTS versus not over-expressing
Protocol: Cells were fixed with 4% paraformaldehyde in PBS for 20 min at room temperature, washed with PBS, permeabilized with 0.5% Triton-X in PBS for 5 min, and incubated with primary antibodies for 2 hours at room temperature (rabbit polyclonal anti-ARTS (1:20,000; Sigma), monoclonal anti-ARTS, and/or monoclonal anti-XIAP (1:500; used in subsequent Examples). Cells were washed three times with PBS/0.1% Triton-X and incubated with FITC conjugated anti-mouse and Rhodamin^TX-conjugated anti-rabbit secondary antibodies (Jackson). Images were analyzed using a confocal laser microscope (Zeiss LSM 510). Mitochondria were visualized with MitoTracker® Red CMXRos (Molecular Probes/Invitrogen).
For caspase inhibition, we added […] of BOC-Asp(Ome)CH2F (Enzyme Systems Products) one hour prior to addition of the apoptotic agents.

XIAP [6] = assay: XIAP protein levels by Western blot in COS-7 cells; assay type: cell-based, African Green Monkey
Protocol: as §2, §3
Cells were treated for 2 hours with […] of the proteasome inhibitor (MG132, Calbiochem) prior to induction of apoptotis.

T1 sequence (P98170 whole entry): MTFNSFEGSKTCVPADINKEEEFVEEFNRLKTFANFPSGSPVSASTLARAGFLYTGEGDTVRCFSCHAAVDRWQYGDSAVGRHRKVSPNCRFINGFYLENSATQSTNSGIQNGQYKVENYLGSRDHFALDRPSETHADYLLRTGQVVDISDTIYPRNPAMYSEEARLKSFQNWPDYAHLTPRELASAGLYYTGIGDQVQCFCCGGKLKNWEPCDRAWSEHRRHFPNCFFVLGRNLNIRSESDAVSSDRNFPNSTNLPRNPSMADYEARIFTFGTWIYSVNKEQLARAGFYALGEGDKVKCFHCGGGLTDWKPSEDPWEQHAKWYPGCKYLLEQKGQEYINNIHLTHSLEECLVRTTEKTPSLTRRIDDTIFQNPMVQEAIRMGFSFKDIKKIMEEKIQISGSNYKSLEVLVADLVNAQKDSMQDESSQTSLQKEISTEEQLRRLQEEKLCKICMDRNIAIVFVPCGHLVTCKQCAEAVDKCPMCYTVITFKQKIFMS

ARTS-XIAP binding, direct or not (XIAP [2]): direct
B1: AU5-ARTS (other)
chain: MIKRFLEDTTDDGELSKFVKDFSGNASCHPPEAKTWASRPQVPEPRPQAPDLYDDDLEFRPPSRPQSSDNQQYFCAPAPLSPSARPRSPWGKLDPYDSSEDDKEYVGFATLPNQVHRKSVKKGFDFTLMVAGESGLGKSTLVNSLFLTDLYRDRKLLGAEERIMQTVEITKHAVDIEEKGVRLRLTIVDTPGFGDAVNNTECWKPVAEYIDQQFEQYFRDESGLNRKNIQDNRVHCCLYFISPFGHGYGPSLRLLAPPGAVKGTGQEHQGQGCH
notes: Expressed in transfected COS-7 cells and used as lysate or stained in cells; also called pEF1-AU5-ARTS; AU5-tagged ARTS; not shown: AU5 tag attached to the N' terminus of ARTS
caspase-3 activity (HL-60 cells; expression of ARTS in the absence of pro-apoptotic stimuli, HL-60 cells): increased caspase-3 activity
caspase-3 activity (HL-60 cells; over-expression of ARTS, HL-60 cells treated with ara-C): increased caspase-3 activity
caspase-3 activity (K562 cells; expression of ARTS in the absence of pro-apoptotic stimuli, K562 cells): little or no effect
caspase-3 activity (K562 cells; over-expression of ARTS, K562 cells treated with ara-C): increased caspase-3 activity
caspase-3 activity (A549 cells; expression of ARTS in the absence of pro-apoptotic stimuli, A549 cells): little or no effect
caspase-3 activity (A549 cells; over-expression of ARTS, A549 cells treated with TGF-β): increased caspase-3 activity
caspase-3 activity (COS-7 cells [1]; expression of ARTS in the absence of pro-apoptotic stimuli, COS-7 cells): little or no effect
caspase-3 activity (COS-7 cells [1]; over-expression of ARTS, COS-7 cells treated with etoposide): increased caspase-3 activity
interaction of endogenous ARTS and XIAP (XIAP [3]): interact with each other
apoptotic marker H2A.X (COS-7 cells [4]): high levels of the apoptotic marker H2A.X
XIAP staining in the nucleus (COS-7 cells [5]): significantly higher levels in the nucleus
amount of XIAP (XIAP [6]; COS-7 cells transiently transfected with pcDNA3-myc-XIAP and AU5-ARTS versus XIAP alone): significantly decreased
levels of XIAP (XIAP [6]; COS-7 pE-ARTS cells stably expressing high levels of ARTS): significantly reduced levels of XIAP
XIAP protein levels (XIAP [6]; transiently transfected COS-7 cells treated with 1 mM staurosporin (STS) for 0, 2 or 5 hours): reduced XIAP protein levels

From patent publication US20050227302A1, “Induction of apoptosis via ARTS-IAP complexes” (priority 2004, published 2005)
